Results reported in patent publication US20260035464A1 (STAIDSON BIOPHARMA, published 2026).
Numbering of substitutions follows the chain as printed.

Key:
[1] = biological target: T1, human BTLA (Uniprot Q7Z6A9) expressed on cells (human, UniProt Q7Z6A9 31-289); assay: flow cytometry blocking assay on huBTLA-overexpressing Expi293 cells, antibody titrated, soluble human HVEM-mouse IgG2a Fc detected
T1 construct: whole, on cells; also called huBTLA-overexpressing Expi293 cells
Procedure: Expi293 cells stably overexpressing huBTLA were incubated with chimeric anti-BTLA antibody 83F2 or 86B7 for 30 minutes at 4° C. The cells were washed, and then incubated with human HVEM-mouse IgG2a Fc recombinant protein (Acro Biosystems, cat #HVM-H5255) at […] concentration for 20 minutes at 4° C. The human HVEM bindings were detected by goat anti-mouse Alexa 488 secondary antibody (ThermoFisher, cat #A-11029). Cells were washed and acquired by flow cytometry with Attune. Data were analyzed with FlowJo software. BTLA binding is represented as MFI.
FACS based blocking assays of humanized anti-BTLA antibodies were performed as described above in Example 3.

[2] = biological target: T2, human BTLA extracellular domain with C-terminal 10xHis tag (human, UniProt Q7Z6A9 31-157); assay: BLI (Octet RED96), antibody on AHC biosensor, His-tag-huBTLA in solution; column head prints nM, but Koff/Kon shows the values are in M
T2 construct: also called HuBTLA-His; His-tag-huBTLA
T2 sequence: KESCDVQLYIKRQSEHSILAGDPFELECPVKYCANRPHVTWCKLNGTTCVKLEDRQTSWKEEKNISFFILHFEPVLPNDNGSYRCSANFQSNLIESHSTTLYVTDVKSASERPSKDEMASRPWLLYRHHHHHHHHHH
Procedure: (§1) The following kinetic assay was performed using anti-human IgG Fc capture (AHC) biosensors (ForteBio) in kinetics buffer (PBS, 0.1% Tween-20 and 1% bovine serum albumin): (a) antibody (2 μg/mL) for 300 sec, (b) baseline for 120 sec, (c) association with purified His-tag-huBTLA (2.5, 0.5 and 0 μg/mL) and His-tag-rhesus monkey BTLA (Sino Biologcal, cat #90250-C08H) (2.5, 0.5 and 0 μg/mL) for 420 sec and (d) dissociation for 1200 sec. Data fitting and analysis was performed with Octet data analysis software 8.0 (ForteBio) using a 1:1 binding model after Savitzky-Golay filtering.
(§2) Binding affinities (monovalent Kd) of humanized anti-BTLA antibodies were determined using Biolayer interferometry on the Octet RED96 instrument (ForteBio) as described above in Example 3, except for (c) association with His-tag-huBTLA ([…]) for 420 sec.

[3] = biological target: T1, human BTLA (Uniprot Q7Z6A9) expressed …; assay: flow cytometry on huBTLA-overexpressing Expi293 cells, MFI
Procedure: Expi293 cells stably overexpressing huBTLA were incubated with the chimeric anti-BTLA antibodies 83F2 or 86B7 in PBS containing 0.5% BSA, 1 mM EDTA, and 0.1% sodium azide (FACS buffer) for 30 minutes at 4° C. The cells were washed, and then incubated with 10 nM phycoerythrin (PE) conjugated anti-Human Fc Ab (BioLegend, cat #409304) for 20 minutes at 4° C. Cells were washed and then analyzed by flow cytometry with Attune (ThermoFisher Scientific). Data were analyzed with FlowJo software. Antibody binding is represented as median fluorescence intensity (MFI).
FACS based binding assays of humanized anti-BTLA antibodies were performed as described above in Example 3.

[4] = biological target: T2, human BTLA extracellular domain with …; assay: BLI (Octet RED96), antibody on AHC biosensor, His-tag-huBTLA in solution
Procedure: as §1, §2

[5] = biological target: T3, extracellular domain of human BTLA with FAS, expressed on Jurkat cells (human, UniProt Q7Z6A9 31-157; P25445 174-335, limits assumed); assay: cell-based or functional assay
T3 sequence (looked up): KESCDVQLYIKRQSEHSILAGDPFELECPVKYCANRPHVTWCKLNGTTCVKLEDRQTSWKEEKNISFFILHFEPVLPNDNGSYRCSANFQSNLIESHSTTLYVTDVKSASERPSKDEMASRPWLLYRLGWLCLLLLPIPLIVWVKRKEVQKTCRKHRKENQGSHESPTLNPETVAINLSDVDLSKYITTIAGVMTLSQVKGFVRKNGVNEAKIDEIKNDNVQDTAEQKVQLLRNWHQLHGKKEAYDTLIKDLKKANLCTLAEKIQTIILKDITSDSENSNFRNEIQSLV

[6] = biological target: T1, human BTLA (Uniprot Q7Z6A9) expressed …; assay: cell-based or functional assay
[7] = biological target: T2, human BTLA extracellular domain with …; assay: BLI (Octet RED96), antibody captured on AHC biosensor, His-tag-huBTLA in solution, 1:1 model
Procedure: as §1

[8] = biological target: T4, huBTLA as coated in the binding ELISA of Example 3 (tag not stated) (human, UniProt Q7Z6A9 31-157); assay: ELISA, huBTLA coated at 0.333 ug/mL, anti-human IgG Fc-AP detection
T4 construct: Detection was with anti-human IgG Fc
T4 sequence: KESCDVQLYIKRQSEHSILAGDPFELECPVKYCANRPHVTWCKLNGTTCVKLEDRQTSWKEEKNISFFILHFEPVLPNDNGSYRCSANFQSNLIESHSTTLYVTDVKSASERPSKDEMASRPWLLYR
Procedure: (§3) BTLA binding of purified recombinant chimeric antibodies by ELISA: The huBTLA and rhesus monkey BTLA antigen binding ELISA was performed on the purified recombinant chimeric antibodies. Briefly, 384-well, clear flat bottom high binding plates (Corning, cat #3700) were coated overnight at 4° C. with 0.333 μg/mL of huBTLA or rhesus monkey BTLA in PBS. The following purified process was performed as described in ELISA binding assay in Example 2, except that the secondary antibody was goat anti human IgG Fc-AP (Southern Biotech, cat #2014-04).

[9] = biological target: T1, human BTLA (Uniprot Q7Z6A9) expressed …; assay: cell-based or functional assay; remark: listed apart in the source
[10] = biological target: T4, huBTLA as coated in the binding ELISA …; assay: ELISA, plate coated with huBTLA, detection with goat anti-human IgG Fc-AP, OD405
Procedure: as §3

[11] = biological target: T5, rhesus monkey BTLA extracellular domain protein with His tag (Sino Biological, cat #90250-C08H) (rhesus monkey, UniProt G7MKA9 31-157); assay: ELISA, rhesus monkey BTLA coated at 0.333 ug/mL, anti-human IgG Fc-AP detection
T5 construct: extracellular domain; Bought protein; also called His-tag-rhesus monkey BTLA; not shown: His tag
T5 sequence: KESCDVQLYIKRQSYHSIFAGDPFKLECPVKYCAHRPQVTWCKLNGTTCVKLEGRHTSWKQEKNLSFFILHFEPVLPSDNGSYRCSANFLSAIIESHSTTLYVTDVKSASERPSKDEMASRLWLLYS
Procedure: as §3

[12] = biological target: T6, human BTLA extracellular domain with C-terminal mouse IgG2a Fc tag (human; mouse, UniProt Q7Z6A9 31-157); assay: blocking ELISA, huBTLA-mIgG2a Fc coated; competitor huHVEM-His (2 ug/ml)
T6 construct: also called huBTLA with mIgG2a Fc tag; not shown: mouse IgG2a Fc, C-terminal
T6 sequence: T4 sequence
Procedure: HVEM blocking by purified recombinant chimeric antibodies by ELISA: Human HVEM (huHVEM) blocking ELISA was performed on purified recombinant chimeric anti-BTLA antibodies. Briefly, 384-well, clear flat bottom high binding plates (Corning, cat #3700) were coated overnight at 4° C. with 0.333 μg/mL purified huBTLA with mIgG2a Fc tag in PBS (coating solution). After removing the coating solution, the plates were blocked by adding blocking buffer and incubated at 37° C. for 1 hour. Plates were then washed 3 times with wash buffer. Serial dilution of purified chimeric antibodies in PBS were added to individual well followed by incubation at 37° C. for 1 hour. Plates were washed 3 times with wash buffer. Then 30 μL per well of 2 μg/ml human HVEM with His tag (Sino Biological, cat #10334-H08H) in assay buffer was added into the reaction and incubated for 1 hour. Plates were washed 3 times with wash buffer. Then 30 μL per well of mouse anti-his-AP (Southern Biotech, cat: 4603-04) at 1:500 dilution in ELISA diluent was added, and incubated at 37° C. for 30 min, then the plates were washed 5 times with wash buffer and developed for 30 minutes with 30 μL per well of pNPP substrate. Plates were analyzed with a Bio-TEK at 405 nm. The blocking IC₅₀ value represents the antibody concentration that inhibited 50% of huHVEM binding to coated human BTLA.

[13] = biological target: T5, rhesus monkey BTLA extracellular domain …; assay: ELISA, plate coated with rhesus monkey BTLA, detection with goat anti-human IgG Fc-AP, OD405
Procedure: as §3

B1: humanized anti-BTLA antibody SB2003-4 (antibody, V domains shown)
VH: QITLKESGPTLVKPTQTLTLTCTFSGFSLSTFGMGVSWIRQPPGKALEWLAHIYWDDDKRFNPSLKSRLTITKDTSKNQVVLTMTNMDPVDTATYYCARGNWDGETYFDYWGQGTLVTVSS
VL: DVVMTQSPLSLPVTLGQPASISCKSTQSLLDSDGKTYLNWLQQRPGQSPRSLIYLVSKLDSGVPDRFSGSGSGTDFTLKISRVEAEDVGVYYCWQGTHFPWTFGQGTKVEIK
IC50 (read off the curve) [1]: ~0.4 nM | Kd [2]: 0.312 nM | EC50 (read off the curve) [3]: ~0.8 nM | koff [4]: 9.19e-05 s⁻¹ | kon [4]: 307000 M⁻¹ s⁻¹

B2: humanized anti-BTLA antibody SB2003-9 (antibody, V domains shown)
VH: B1 VH with R99H
VL: B1 VL with L41F
Kd [2]: 0.148 nM | koff [4]: 6.5e-05 s⁻¹ | kon [4]: 440000 M⁻¹ s⁻¹

B3: humanized anti-BTLA antibody SB2003-6 (antibody, V domains shown)
VH: B1 VH with I2V
VL: B1 VL with S51R
Kd [2]: 0.604 nM | koff [4]: 8.06e-05 s⁻¹ | kon [4]: 134000 M⁻¹ s⁻¹

B4: humanized anti-BTLA antibody SB2003-11 (antibody, V domains shown)
VH: B1 VH with I2V, R99H
VL: B1 VL with L41F
IC50 (read off the curve) [1]: ~0.4 nM | EC50 of inhibition of huHVEM-Fc-induced apoptosis, Jurkat-huBTLA-FAS cells (ATP luminescence) [5]: 0.117 nM | Kd [2]: 0.128 nM | EC50 of recovery of IL-2 production, Raji-HVEM/primary human T cell coculture [6]: 2.31 nM | EC50 (read off the curve) [3]: ~0.8 nM | koff [4]: 4.99e-05 s⁻¹ | kon [4]: 384000 M⁻¹ s⁻¹

B5: humanized anti-BTLA antibody SB2003-7 (antibody, V domains shown)
VH: B1 VH with I2V
VL: B1 VL with L41F
Kd [2]: 0.154 nM | koff [4]: 5.76e-05 s⁻¹ | kon [4]: 366000 M⁻¹ s⁻¹

B6: humanized anti-BTLA antibody SB2003-10 (antibody, V domains shown)
VH: B1 VH with R99H
VL: B1 VL
Kd [2]: 0.551 nM | koff [4]: 0.000179 s⁻¹ | kon [4]: 356000 M⁻¹ s⁻¹

B7: humanized anti-BTLA antibody SB2003-2 (antibody, V domains shown)
VH: B1 VH
VL: B1 VL with S51R
Kd [2]: 0.797 nM | koff [4]: 0.000109 s⁻¹ | kon [4]: 120000 M⁻¹ s⁻¹

B8: humanized anti-BTLA antibody SB2003-8 (antibody, V domains shown)
VH: B1 VH with I2V
VL: B1 VL
Kd [2]: 0.198 nM | koff [4]: 8.05e-05 s⁻¹ | kon [4]: 418000 M⁻¹ s⁻¹

B9: humanized anti-BTLA antibody SB2003-3 (antibody, V domains shown)
VH: B1 VH
VL: B1 VL with L41F
IC50 (read off the curve) [1]: ~0.4 nM | Kd [2]: 0.308 nM | EC50 (read off the curve) [3]: ~0.8 nM | koff [4]: 9.48e-05 s⁻¹ | kon [4]: 291000 M⁻¹ s⁻¹

B10: chimeric anti-BTLA antibody 96F11 (antibody, V domains shown)
VH: EVQLQQSGAELVKPGASVELSCTASGFNIKDTYIYWVKQRPEQGLQWIGRIDPANGHTKYDPRFQDKATLTAEISSNTAHLQLNSLTSEDTAVYFCVRGGDHPYYVMDWWGQGTSVTVSS
VL: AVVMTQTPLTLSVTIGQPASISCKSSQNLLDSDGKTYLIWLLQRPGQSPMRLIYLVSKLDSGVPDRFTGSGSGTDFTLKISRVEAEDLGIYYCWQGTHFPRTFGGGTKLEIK
Kd [7]: 1.18 nM | koff [7]: 0.000697 s⁻¹ | kon [7]: 607000 M⁻¹ s⁻¹ | EC50 [8]: 0.0482 nM | EC50 of recovery of IL-2 production, Raji-HVEM/Jurkat-BTLA coculture [9]: 2.54 nM | EC50 (read off the curve) [10]: ~0.3 nM | EC50 [11]: 0.057 nM | IC50 [12]: 1.04 nM | EC50 (read off the curve) [13]: ~0.4 nM
